This is an account of results in patent US20140120109A1 (Regeneron, published 2014).

To fix the notation:
T1: human TL1A, soluble, CHO-expressed, residues 72-251 of SEQ ID NO:244 with N-terminal His6-tag (human, UniProt O95150 72-251)
T1 construct: also called hTL1A; hTL1A (CHO)
T1 sequence: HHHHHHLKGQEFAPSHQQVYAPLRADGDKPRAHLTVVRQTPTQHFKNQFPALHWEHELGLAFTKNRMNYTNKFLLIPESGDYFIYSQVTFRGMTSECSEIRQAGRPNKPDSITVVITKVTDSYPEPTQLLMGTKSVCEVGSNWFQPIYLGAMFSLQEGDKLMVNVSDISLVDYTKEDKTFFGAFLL

T2: cynomolgus monkey TL1A, soluble, CHO-expressed, residues 72-251 of SEQ ID NO:248 with N-terminal His6-tag (cynomolgus monkey (Macaca fascicularis), UniProt O95150 72-251 (human entry))
T2 construct: also called MfTL1A; MfTL1A (CHO)
T2 chain: T1 sequence with F45L, I84V

T3: cynomolgus monkey TL1A, soluble, E. coli-expressed, residues 72-251 of SEQ ID NO:248 (cynomolgus monkey (Macaca fascicularis), UniProt O95150 72-251 (human entry))
T3 construct: with or without N-terminal Met; also called MfTL1A (E. Coli)
T3 chain: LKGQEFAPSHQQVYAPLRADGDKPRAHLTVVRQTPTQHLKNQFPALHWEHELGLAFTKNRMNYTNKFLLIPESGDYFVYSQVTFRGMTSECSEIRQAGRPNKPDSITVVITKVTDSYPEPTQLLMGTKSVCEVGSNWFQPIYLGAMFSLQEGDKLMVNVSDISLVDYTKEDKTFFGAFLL

T4: mouse TL1A, soluble, CHO-expressed, residues 76-252 of SEQ ID NO:250 with N-terminal His6-tag (mouse, UniProt Q5UBV8 76-252)
T4 construct: also called mTL1A; mTL1A (CHO)
T4 sequence: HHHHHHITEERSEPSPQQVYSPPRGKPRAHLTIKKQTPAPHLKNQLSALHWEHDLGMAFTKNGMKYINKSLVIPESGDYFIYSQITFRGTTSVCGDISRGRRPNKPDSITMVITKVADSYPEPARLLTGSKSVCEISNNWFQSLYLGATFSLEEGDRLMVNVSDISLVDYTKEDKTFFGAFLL

T5: Fhm, hTL1A(Q167R), soluble, CHO-expressed, residues 72-251 of SEQ ID NO:246 (human, UniProt O95150 72-251)
T5 chain: T1 sequence with Q102R

T6: rat TL1A, soluble, CHO-expressed, residues 76-252 of SEQ ID NO:258 with N-terminal His6-tag (rat, UniProt Q8K3Y7 76-252)
T6 sequence: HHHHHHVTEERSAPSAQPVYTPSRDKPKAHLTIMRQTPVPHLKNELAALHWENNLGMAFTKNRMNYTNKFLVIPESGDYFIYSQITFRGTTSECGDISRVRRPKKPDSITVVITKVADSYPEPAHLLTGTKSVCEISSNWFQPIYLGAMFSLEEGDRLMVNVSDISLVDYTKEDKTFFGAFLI

B1: H4H1725P (antibody, human IgG4 S228P, V domains shown)
VH: QVQLVQSGAEVKKPGASVKVSCKASGYTFTGYYMHWVRQAPGQGLEWMGWIKPKSGGTNYVQKFQGRVTMTRDTSINTAYMELNNLKSDDTAVYYCATGGSQDASDFWGQGTMVTVSS
VL: DIQMTQSPSSVSASVGGRVTITCRASQDISIWLAWYQQKPGKAPNLLIYAASSLQSGVPSRFSGSGSGTDFTLTISSLQPEDFATYYCQQADSFPLTFGGGTKVEIK
B2: H4H1817N (antibody, human IgG4 S228P, V domains shown)
VH: QVQLQQWGAGLLKPSETLSLTCAVSGGSFSDYFWTWIRQPPGKGLEWIGEISHSGRTNYNPSLKSRVTISVDTSMSQFSLKMTSVTAADSAVYYCARDYPNWVFDYWGQGTLVTVSS
VL: EIELTQSPGTLSLSPGEGATLSCRASQSVFNSYLAWYQQKPGQAPRLLIYGASRRATGIPDRFSGSGSGTDFTLTISRLEPGDFAVYFCQQYGNSPLTFGGGTKVEIK
notes: human IgG4(S108P) form of H2M1817N
B3: H4H1745P (antibody, human IgG4 S228P, V domains shown)
VH: EVQLVESGGGLVQPGGSLRLSCAASGFTFSSYAMTWVRQAPGKGLEWVSGVSGRGGSTYYADSVKGRFTISRDNSKNTLYLQMNSLRAEDTAVYYCAYWDISSFDYWGQGTLVTVSS
VL: DIQLTQSPSFLSASVGDRVTITCWASQGISTYLAWYQQKPGKTPKLLIYAASTLQSGVPSRFSGSGSGTDFTLTISSLQPEDFATYYCQQFNSYPLTFGGGTKVEIK
B4: H4H1719P (antibody, human IgG4 S228P, V domains shown)
VH: EVQLVESGGGLVQPGRSLRLSCVASGFTFQDYAMHWVRQAPGKGLEWVSGINWISDDMGYADSVMGRFTISRDNAKNSLYLQMDSLRAEDTALYYCAKDKGLRFLDYVMDVWGQGTTVTVSA
VL: DIVMTQSPLSLPVTPGEPASISCRSTQSLLHRNGHNYLHWYLHKPGQSPQLLIHLGSNRASGVPDRFSGSGSGTDFTLKISRVEAEDVGVYYCMQALQTPYTFGQGTKLEIK
B5: H4H1738P (antibody, human IgG4 S228P, V domains shown)
VH: EVQLVESGGALVKPGGSLRLSCAVSGFTFINDWMNWVRQAPGKGLEWVGRIKSTTDGGTTDDAAPVKGRFTISRDDSKNTLYLQMNSLKTEDTAVYYCTRDRNRQRNYFYDGMDVWGQGTTVTVSA
VL: B4 VL with L9V, T26S, S28R, R32N, H35N, H39D, H43Q, H54Y, I80V
B6: H4H1681N (antibody, human IgG4 S228P, V domains shown)
VH: EVQLLESGGGLVQPGKSLRLSCAVSGFTFSTYGMNWVRQAPGKGLEWVSSISGTGRTTYHADSVQGRFTVSRDNSKNILYLQMNSLRADDTAVYFCTKERGDYYYGVFDYWGQGTLVTVSS
VL: DIQMTQSPSTLSASVGDRVTITCRASQTISSWLAWYQQTPEKAPKLLIYAASNLQSGVPSRFSGSGSGTEFTLTISSLQPDDFATYYCQQYHRSWTFGQGTKVEIT
B7: H4H1805N (antibody, human IgG4 S228P, V domains shown)
VH: QVQLQQWGAGLLKPSETLSLTCAVYGGSFTGFYWSWIRQPPGKGLEWIGEINHRGNTNYNPSLKSRVTMSVDTSKNQFSLNMISVTAADTAMYFCASPFYDFWSGSDYWGQGTLVTVSS
VL: DIMLTQTPLTSPVTLGQPASISCKSSQSLVHSDGNTYLSWLQQRPGQPPRLLFYKISNRFSGVPDRFSGSGAGTDFTLKISRVEAEDVGVYYCMQATQFPLTFGGGTKVEIK
notes: human IgG4(S108P) form of H2M1805N
B8: H4H1752P (antibody, human IgG4 S228P, V domains shown)
VH: EVQLVESGGGLVQPGGSLRLSCSASGFTFSKYVMTWVRQAPGKGLEWVSAIGPTGRTTEYADSVQGRFTISRDNSMNTVFLHLNSLTAEDTAEYYCAKMFDWNYDVYFDSWGQGTLVTVSS
VL: DIQMTQSPSILSASVGDRVTITCRTSQSISNWLAWYQQKPGKAPNLLIYKASSLESGVPSRFSGSGSGTEFTLTISSLQPDDFATYYCQQYYRYWTFGQGTKVEIK
B9: H4H1750P (antibody, human IgG4 S228P, V domains shown)
VH: QVQLVESGGGVVQPGRSLRLSCVASGFTFSNYGMHWVRQAPGKGLEWVAVISYDGNNDLYSDSVKGRFTISRDNAKNALSLQMTSLRAEDTAVYYCARDSTMTPYYYHGIDVWGQGTTVTVSA
VL: DIQMTQSPSSLSASVGDRVTITCRASQDIRNDLGWYQQKPGKAPKRLIYAASSLQSGVPSRFSGSGSGTDFTLTISSLQPEDFATYYCLQHNSYPPTFGQGTKVEIK
B10: H4H1704N (antibody, human IgG4 S228P, V domains shown)
VH: EVQLVESGGGLVQPGGSLRLSCAVSGFTFSSYWMSWVRQAPGKGLEWVANIKEDGSEKNYVDSVKGRFTLSSDNAKNSLYLQMNSLRAEDTAVYYCAREDYDSYYKYGMDVWGQGTAVIVSS
VL: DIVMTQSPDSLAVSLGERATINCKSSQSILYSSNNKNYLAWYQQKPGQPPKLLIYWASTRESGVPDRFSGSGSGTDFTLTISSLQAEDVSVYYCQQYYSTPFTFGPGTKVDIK
notes: human IgG4(S108P) form of H2M1704N
B11: H4H1818N (antibody, human IgG4 S228P, V domains shown)
VH: RLQLVESGGGLVKPGGSLKLSCAASGFTISDYYMSWIRQAPGKGLEWVSYIGGSGSTIYYADSVKGRFTISRDNAKNSLYLQMNSLRAEDTAVYYCAREDADSYYYYGMDVWGQGTTVTVSS
VL: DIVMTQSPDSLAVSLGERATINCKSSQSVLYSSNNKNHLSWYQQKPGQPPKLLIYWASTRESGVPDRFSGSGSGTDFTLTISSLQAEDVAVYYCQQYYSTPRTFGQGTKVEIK
notes: human IgG4(S108P) form of H2M1818N

Where a chain is given by its changes, count along the chain named. Names may count otherwise.

One assay concerns the target T1, human TL1A, soluble, CHO-expressed, …. The experiment in a line: SPR 37C, mAb captured. The method, boiled down:
(§1)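 Biacore T100 SPR with captured mAb and soluble TL1A/Fhm analyte; ka and kd fitted to a 1:1 model assuming monomeric TL1A. KD = kd/ka; t1/2 (min) = ln2/(60·kd).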
B1 showed a Kd of 0.0239 nM and a t1/2 of 12.6 h.
On the same counts, the results for B2 are 0.0278 nM and 18.3 h.
On the same counts, the results for B3 are 0.177 nM and 2.15 h.
B4 showed a dissociation constant Kd of 0.00761 nM and a t1/2 of 31.9 h.
In turn, B5 showed a Kd of 0.571 nM and a t1/2 of 0.85 h.
Taken in the same sequence, the figures for B6 were 0.254 nM and 0.517 h.
On the same counts, the results for B7 are 0.299 nM and 1.33 h.
On the same counts, the results for B8 are 0.225 nM and 1.6 h.

The target of another assay is T2, cynomolgus monkey TL1A, soluble, …. The experiment in a line: SPR 37C, mAb captured. The method, boiled down:
as §1
B1: the Kd came out at 0.0177 nM and the t1/2 is 14.8 h.
Taken in the same sequence, the figures for B2 were 0.0256 nM and 19.2 h.
B3: the Kd stood at 0.173 nM and the t1/2 turned out to be 2.07 h.
On the same counts, the results for B4 are 0.00201 nM and 96.4 h.
In turn, B5 yielded a Kd of 0.465 nM and a t1/2 of 1 h.
On the same counts, the results for B6 are 0.226 nM and 0.533 h.
On the same counts, the results for B7 are 0.352 nM and 1.13 h.
For the molecule B8, binding was put at a Kd of 0.223 nM and the t1/2 turned out to be 1.52 h.

The next assay deals with T3, cynomolgus monkey TL1A, soluble, E. …. The experiment in a line: SPR 37C, mAb captured. The gist of the method:
as §1
As to B1, the Kd was 0.0622 nM and the t1/2 was 2.9 h.
Taken in the same sequence, the figures for B3 were 0.281 nM and 1.23 h.
On the same counts, the results for B4 are 0.289 nM and 0.667 h.
In turn, B5 yielded a Kd of 4.2 nM and a t1/2 of 0.0667 h.
Taken in the same sequence, the figures for B8 were 1.32 nM and 0.483 h.
On the same counts, the results for B9 are 456 nM and 0.0167 h.

The next assay addresses T4, mouse TL1A, soluble, CHO-expressed, …. Nature of the assay: SPR 37C, mAb captured. The method, boiled down:
as §1
For the molecule B3, the binding result was “no binding (tested: up to 100 nM)”.
Take B4: the binding result was “no binding (tested: up to 100 nM)”.
Turning to B5, the binding result is recorded as “no binding (tested: up to 100 nM)”.
For the molecule B10, the Kd came out at 1.3 nM and the t1/2 was determined as 0.45 h.
For the molecule B8, the binding result is on record as “no binding (tested: up to 100 nM)”.
On the same count and under the same terms, the value for B9 was “no binding (tested: up to 100 nM)”.

For a further assay, the target named is T5, Fhm, hTL1A(Q167R), soluble, …. The experiment in a line: cell-based or functional assay.
For B1, the “IC50, NFkB-luciferase reporter” value came to 0.07 nM.
In the case of B2, the “IC50, NFkB-luciferase reporter” value is 0.12 nM.
On the same count and under the same terms, the same measure for B3: 0.15 nM; for B4: 0.08 nM.
Still for that read-out and setting: the value for B5 was 0.33 nM; that for B11 was 0.62 nM.
For B10, the “IC50, NFkB-luciferase reporter” value is 0.17 nM.
Take B7: the “IC50, NFkB-luciferase reporter” value amounted to 186 nM.
Turning to B9, the “IC50, NFkB-luciferase reporter” value turned out to be 3.1 nM.

In another assay the target is T6, rat TL1A, soluble, CHO-expressed, …. Nature of the assay: cell-based or functional assay.
As to B1, the “IC50, NFkB-luciferase reporter” value turned out to be 63.4 nM.
On the same count and under the same terms, the value for B2 was 23.9 nM.
Regarding B11, the “IC50, NFkB-luciferase reporter” value was 1.1 nM.
As for B10, the “IC50, NFkB-luciferase reporter” value came to 0.4 nM.
